{"source": "paper PMC6587469", "key": {"[1]": {"target": "MabSelect SuRe protein A ligand: tetrameric chain of Z-domains (recombinant form of the B domain of (Staphylococcus aureus))", "test": "SAXS"}, "[2]": {"target": "MabSelect SuRe protein A ligand: tetrameric chain of Z-domains (recombinant form of the B domain of (Staphylococcus aureus))", "test": "batch adsorption isotherm"}}, "note": "Values joined by “and” are separate entries in the source; they are usually repeats but may differ in a detail not shown here. Identical values can stand only once.", "data": [{"substance": "Trastuzumab (antibody)", "values": [{"measurement": "stoichiometry N (antibody : protein A chain)", "setting": "[1]", "result": "1 and 2"}, {"measurement": "stoichiometry N (antibody molecules per ligand)", "setting": "[2]", "result": 2}]}]}
